Tests used:
[1] = molecular target: MUC4-Tn glycopeptide … (SEQ ID NO:154) with O-linked GalNAc on the serine and threonine at positions 12 and 13; test: BLI (Octet), MUC4 glycopeptide on biosensor
[2] = molecular target: Tn-glycosylated MUC4 on cells (MUC4-Tn; COSMC-KO cells, cancer tissue) (UniProt Q99102); test: flow cytometry on T3M4 COSMC-KO (T3M4-M) cells

Chain of MUC4-Tn glycopeptide … (SEQ ID NO:154) with O-linked GalNAc on the serine and threonine at positions 12 and 13 (peptide, as listed by the source): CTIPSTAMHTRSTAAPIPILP

B1: 2D5-HV1-69-C/KV2B (antibody, V domains shown)
VH: QVQLVQSGAEVKKPGSSVKVSCKASGYTFSDHAIHWVRQAPGQGLEWLGYISPGNADINYAQKFQGRVTITADKSTSTAYMELSSLRSEDTAVYYCKRSMANSFDYWGQGTLVTVSS
VL: DIVMTQTPLSLPVTPGEPASISCRSSQSVLYSSDEKTYLAWYLQKPGQSPQLLIYWASTRESGVPDRFSGSGSGTDFTLKISRVEAEDVGVYYCHQYLSSYTFGQGTKLEIK
Kd [1]: 5.3 nM | EC50 [2]: 0.0194 µg/mL

B2: 2D5-HV1-69-A/KV2A (antibody, V domains shown)
VH: QVQLVQSGAEVKKPGSSVKVSCKASGYTFTDHAIHWVRQAPGQGLEWLGYISPGNDDIQYNAKFKGRATLTADKSTSTAYMELSSLRSEDTAVYFCKRSMANSFDYWGQGTLVTVSS
VL: DIVLTQTPLSLPVTPGEPASISCKSSQSVLYSSDQKNYLAWYLQKPGQSPQLLIYWASTRESGVPDRFSGSGSGTDFTLKISRVEAEDVGVYYCHQYLSSYTFGQGTKLEIK
Kd [1]: 4.1 nM | EC50 [2]: 0.0179 µg/mL

B3: 2D5-HV1-3B/KV2B (antibody, V domains shown)
VH: QVQLVQSGAEVKKPGASVKVSCKASGYTFTDHAIHWVRQAPGQRLEWLGYISPGNDDIQYSQKFKGRVTITADKSASTAYMELSSLRSEDTAVYYCKRSMANSFDYWGQGTLVTVSS
VL: DIVMTQTPLSLPVTPGEPASISCRSSQSVLYSSDEKTYLAWYLQKPGQSPQLLIYWASTRESGVPDRFSGSGSGTDFTLKISRVEAEDVGVYYCHQYLSSYTFGQGTKLEIK
Kd [1]: 7.7 nM | EC50 [2]: 0.0163 µg/mL

B4: 2D5-HV1-69-B/KV2B (antibody, V domains shown)
VH: QVQLVQSGAEVKKPGSSVKVSCKASGYTFTDHAIHWVRQAPGQGLEWLGYISPGNDDIQYNQKFKGRVTITADKSTSTAYMELSSLRSEDTAVYYCKRSMANSFDYWGQGTLVTVSS
VL: DIVMTQTPLSLPVTPGEPASISCRSSQSVLYSSDEKTYLAWYLQKPGQSPQLLIYWASTRESGVPDRFSGSGSGTDFTLKISRVEAEDVGVYYCHQYLSSYTFGQGTKLEIK
Kd [1]: 3.3 nM | EC50 [2]: 0.0248 µg/mL
